Consider 1 substance from PMC5382021.

Common to all, as to assay: purified protein
Series [1] concerns Nc1nc2c(ncn2[C@@H]2O[C@@H]3COP(=O)(O)O[C@H]4[C@@H](O)[C@H](n5cnc6c(N)ncnc65)O[C@@H]4COP(=O)(O)O[C@H]3[C@H]2O)c(=O)[nH]1. The note with it: 50 mM Tris pH 7.5, 5 mM MnCl2, 37 °C.
In series [2] the test system is Nc1nc2c(ncn2[C@@H]2O[C@@H]3CO[P@](=O)(O)O[C@H]4[C@@H](O)[C@H](n5cnc6c(=O)[nH]c(N)nc65)O[C@@H]4CO[P@](=O)(O)O[C@H]3[C@H]2O)c(=O)[nH]1. The note with it: 50 mM Tris pH 7.5, 5 mM MnCl2, 37 °C.
Series [3] relates to Nc1nc2c(ncn2[C@@H]2O[C@H](CO)[C@H]3OP(=O)(O)O[C@H]32)c(=O)[nH]1. The note with it: 2 mM Mn2+, pH 7.5.
In series [4] the test system is O=c1ccn([C@@H]2O[C@H](CO)[C@H]3OP(=O)(O)O[C@H]32)c(=O)[nH]1. As to conditions: 2 mM Mn2+, pH 7.5.
For series [5], the system named is [H][C@@]1(O)[C@]2([H])OP(=O)(O)OC[C@@]3([H])O[C@@]([H])(n4cnc5c(N)ncnc54)[C@]([H])(O)[C@]3([H])OP(=O)(O)OC[C@@]2([H])O[C@@]1([H])n1cnc2c(N)ncnc21. The note with it: 50 mM Tris pH 7.5, 5 mM MnCl2, 37 °C.

For the substance “rCdnP (CdnP, Gbs1929) (Streptococcus agalactiae 2603V/R)”, the Km in series [1] is 4.0 ± 1.6 µM; in series [2] it was 13.2 ± 6 µM; in series [3] it was 22 ± 4 µM; in series [4], 42 ± 10 µM; in series [5], 14 ± 1 µM. In addition, the kcat is 4.5 s⁻¹ in series [1]; 2.6 s⁻¹ in series [2]; 9.4 s⁻¹ in series [3]; 19.8 s⁻¹ in series [4]; 17.4 s⁻¹ in series [5]. In addition, the kcat/Km in series [1] was determined as 1.1e+06 M⁻¹ s⁻¹; in series [2], 190000 M⁻¹ s⁻¹; in series [3], 420000 M⁻¹ s⁻¹; in series [4] it was 470000 M⁻¹ s⁻¹; in series [5] it was 1.2e+06 M⁻¹ s⁻¹.
